Patent publication US8168591 (University of California, dated 2012)

Target: T1, recombinant soluble integrin αvβ3 (UniProt P06756 31-992; P05106 27-718)
T1 construct: extracellular domain; 'extracellular domain' is my reading of that; Made in CHO K1 cells and purified on Ni-NTA; The docking simulation used PDB 1L5G; also called soluble αvβ3
Experiment: Table 2 grade, αvβ3 binding (ELISA-type assay with soluble αvβ3)

T1 sequence (P06756 31-992, chain 1 of 2): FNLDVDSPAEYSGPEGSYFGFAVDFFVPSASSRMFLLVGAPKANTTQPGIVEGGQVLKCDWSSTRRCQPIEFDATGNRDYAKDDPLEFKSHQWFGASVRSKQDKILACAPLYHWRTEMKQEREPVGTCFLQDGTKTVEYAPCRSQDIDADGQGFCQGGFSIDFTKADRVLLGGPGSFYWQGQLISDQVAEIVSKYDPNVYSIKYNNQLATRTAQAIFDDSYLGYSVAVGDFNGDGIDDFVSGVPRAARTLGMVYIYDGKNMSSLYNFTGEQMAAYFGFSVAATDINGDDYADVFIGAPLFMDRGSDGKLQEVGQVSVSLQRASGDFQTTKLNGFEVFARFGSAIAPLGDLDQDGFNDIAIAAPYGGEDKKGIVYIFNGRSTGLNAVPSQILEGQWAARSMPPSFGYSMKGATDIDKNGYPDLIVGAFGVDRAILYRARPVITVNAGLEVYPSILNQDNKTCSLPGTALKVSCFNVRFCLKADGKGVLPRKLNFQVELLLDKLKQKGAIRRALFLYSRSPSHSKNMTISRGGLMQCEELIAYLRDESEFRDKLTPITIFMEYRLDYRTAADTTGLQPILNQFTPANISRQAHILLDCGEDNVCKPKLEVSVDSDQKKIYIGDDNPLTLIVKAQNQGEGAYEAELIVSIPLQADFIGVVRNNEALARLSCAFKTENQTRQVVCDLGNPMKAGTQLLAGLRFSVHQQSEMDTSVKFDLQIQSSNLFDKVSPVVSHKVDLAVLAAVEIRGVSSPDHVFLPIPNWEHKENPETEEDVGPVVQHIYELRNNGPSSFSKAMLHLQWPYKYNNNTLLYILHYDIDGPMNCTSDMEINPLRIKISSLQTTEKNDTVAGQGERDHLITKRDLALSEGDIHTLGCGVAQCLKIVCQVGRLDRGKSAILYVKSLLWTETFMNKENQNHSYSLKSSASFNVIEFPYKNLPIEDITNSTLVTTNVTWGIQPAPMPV
T1 sequence (P05106 27-718, chain 2 of 2): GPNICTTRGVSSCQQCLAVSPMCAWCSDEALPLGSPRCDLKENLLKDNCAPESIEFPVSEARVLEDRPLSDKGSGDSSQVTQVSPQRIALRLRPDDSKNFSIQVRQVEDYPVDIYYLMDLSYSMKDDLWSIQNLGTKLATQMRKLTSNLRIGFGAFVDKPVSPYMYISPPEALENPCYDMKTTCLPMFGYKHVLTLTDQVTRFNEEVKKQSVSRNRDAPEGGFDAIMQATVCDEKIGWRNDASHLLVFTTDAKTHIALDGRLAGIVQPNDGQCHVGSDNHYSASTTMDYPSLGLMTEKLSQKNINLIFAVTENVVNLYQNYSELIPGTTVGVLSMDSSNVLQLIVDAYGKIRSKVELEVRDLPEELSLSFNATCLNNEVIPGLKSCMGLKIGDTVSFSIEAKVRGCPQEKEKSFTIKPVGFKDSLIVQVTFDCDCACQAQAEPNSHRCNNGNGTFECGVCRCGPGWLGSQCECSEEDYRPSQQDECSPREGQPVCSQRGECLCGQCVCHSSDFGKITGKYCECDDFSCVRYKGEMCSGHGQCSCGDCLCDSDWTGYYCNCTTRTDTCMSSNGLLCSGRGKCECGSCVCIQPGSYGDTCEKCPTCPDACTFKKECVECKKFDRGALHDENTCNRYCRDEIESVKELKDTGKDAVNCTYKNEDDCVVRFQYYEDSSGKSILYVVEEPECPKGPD

B1: FGF-1 Glu102/Tyr109/Asn110 to Ala mutant (3×A) (ligand)
chain: FNLPPGNYKKPKLLYCSNGGHFLRILPDGTVDGTRDRSDQHIQLQLSAESVGEVYIKSTETGQYLAMDTDGLLYGSQTPNEECLFLARLEENHAATYISKKHAEKNWFVGLKKNGSCKRGPRTHYGQKAILFLPLPVSSD
notes: also called 3xA; E1 02A/Y109A/Q110A
**Q.** Does B1 bind?
**A.** Result: binds
